Laboratory results as given in patent US20250049970A1, “DLL3 TARGETING PEPTIDES AND CONSTRUCTS THEREOF” (MARIANA ONCOLOGY INC., priority 2023, published 2025).
Where “and” joins values, the source holds several entries; their conditions need not be identical. Equal values may be shown once. *1 amine or outer side, *2 acyl side, *3 side chain or, on linkers, in order; H or OH if unused. Bridges are numbered along the chain shown (N, C = ends). Side-chain parts run from the residue outwards. [ ]: non-standard residue; d: D form. The star is where a group is joined. PipA(acetate-DOTA) = (3-(4-piperidinyl)-Ala)-(1,4,7,10-tetraazacyclododecane-1,4,7-triyl)triacetic acid, O=C(O)CN1CCN(CC(=O)O)CCN(CC(=O)N2CCC(C[C@H](N[*:1])C(=O)[*:2])CC2)CCN(CC(=O)O)CC1; PipA(Peg) = 3-(4-piperidinyl)-Ala-(3-hydroxypropanoic acid), O=C(CCO[*:3])N1CCC(C[C@H](N[*:1])C(=O)[*:2])CC1; Ala(1-CH2CO2H-4-piperidyl) = N[C@@H](CC1CCN(CC(=O)O)CC1)C(=O)O; Ala(piperidin-4-yl) = O=C([C@H](CC1CCN([*:3])CC1)N[*:1])[*:2]; DOTA = O=C(O)CN1CCN(CC(=O)O)CCN(CC(=O)*)CCN(CC(=O)O)CC1; PEG8 = NCCOCCOCCOCCOCCOCCOCCOCCOCCC(=O)O; 2Nal = N[C@@H](Cc1ccc2ccccc2c1)C(=O)O; NMetBuAla = CN[C@@H](CC(C)(C)C)C(=O)O; Gly(4-THP) = N[C@H](C(=O)O)C1CCOCC1; Ile(3-Me) = CCC(C)(C)[C@H](N)C(=O)O; aIle = CC[C@@H](C)[C@H](N)C(=O)O; tBuAla = CC(C)(C)C[C@H](N)C(=O)O; Cha = N[C@@H](CC1CCCCC1)C(=O)O; Chg = N[C@H](C(=O)O)C1CCCCC1; NMeNle = CCCC[C@H](NC)C(=O)O; Tle = CC(C)(C)[C@H](N)C(=O)O; αMeP = C[C@@]1(C(=O)O)CCCN1; plPh = not defined here; CH2 = C([*:1])[*:2]

T1: DLL3 on SHP-77 cells (human, UniProt Q9NYJ7 27-618)
T1 construct: SHP-77 cells are human-derived, non-engineered SCLC cells
T1 sequence: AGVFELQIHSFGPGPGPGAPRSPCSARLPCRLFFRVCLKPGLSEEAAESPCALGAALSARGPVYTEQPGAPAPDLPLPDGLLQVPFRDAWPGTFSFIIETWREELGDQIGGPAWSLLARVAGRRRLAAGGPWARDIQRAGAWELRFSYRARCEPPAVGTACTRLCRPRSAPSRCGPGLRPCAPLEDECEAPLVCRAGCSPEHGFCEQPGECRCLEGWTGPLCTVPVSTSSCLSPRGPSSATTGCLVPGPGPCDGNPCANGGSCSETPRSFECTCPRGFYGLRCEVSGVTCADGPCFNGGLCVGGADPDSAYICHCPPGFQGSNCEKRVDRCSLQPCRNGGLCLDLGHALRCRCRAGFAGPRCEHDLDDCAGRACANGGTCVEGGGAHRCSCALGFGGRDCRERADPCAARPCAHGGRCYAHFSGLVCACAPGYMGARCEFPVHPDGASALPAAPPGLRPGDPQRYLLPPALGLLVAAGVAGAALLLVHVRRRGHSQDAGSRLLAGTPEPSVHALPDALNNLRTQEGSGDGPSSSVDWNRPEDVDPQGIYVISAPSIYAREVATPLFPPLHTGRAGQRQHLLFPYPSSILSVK

T2: DLL3 on CT26.DLL3 cells (Homo sapiens (Human), UniProt Q9NYJ7 27-618)
T2 construct: CT26.DLL3 are engineered cells to express DLL3
T2 sequence: T1 sequence

B1: Cpd No. 314 (peptide)
peptide: Ac-WT[tBuAla]C[Ala(piperidin-4-yl)]N[2Nal]K(DOTA)DCWP-NH2
modifications: disulfide 4-10
SMILES: CC(=O)N[C@@H](Cc1c[nH]c2ccccc12)C(=O)N[C@H](C(=O)N[C@@H](CC(C)(C)C)C(=O)N[C@H]1CSSC[C@@H](C(=O)N[C@@H](Cc2c[nH]c3ccccc23)C(=O)N2CCC[C@H]2C(N)=O)NC(=O)[C@H](CC(=O)O)NC(=O)[C@H](CCCCNC(=O)CN2CCN(CC(=O)O)CCN(CC(=O)O)CCN(CC(=O)O)CC2)NC(=O)[C@H](Cc2ccc3ccccc3c2)NC(=O)[C@H](CC(N)=O)NC(=O)[C@H](CC2CCNCC2)NC1=O)[C@@H](C)O
B2: Cpd No. 417 (peptide)
peptide: Ac-WT[Chg]C[Ala(piperidin-4-yl)]N[2Nal]K(DOTA)DCWP[dK]([PEG8-plPh])-NH2
modifications: bridge 4-10; not fully specified (bridges); reading uncertain; also: bridge 4-10: thioacetal per mods, disulfide
B3: Cpd No. 315 (peptide)
peptide: Ac-WT[Tle]CNN[2Nal]K(DOTA)DCWP-NH2
modifications: disulfide 4-10
SMILES: CC(=O)N[C@@H](Cc1c[nH]c2ccccc12)C(=O)N[C@H](C(=O)N[C@H](C(=O)N[C@H]1CSSC[C@@H](C(=O)N[C@@H](Cc2c[nH]c3ccccc23)C(=O)N2CCC[C@H]2C(N)=O)NC(=O)[C@H](CC(=O)O)NC(=O)[C@H](CCCCNC(=O)CN2CCN(CC(=O)O)CCN(CC(=O)O)CCN(CC(=O)O)CC2)NC(=O)[C@H](Cc2ccc3ccccc3c2)NC(=O)[C@H](CC(N)=O)NC(=O)[C@H](CC(N)=O)NC1=O)C(C)(C)C)[C@@H](C)O
B4: Cpd No. 317 (peptide)
peptide: Ac-WT[Gly(4-THP)]CNN[2Nal]K(DOTA)DCWP-NH2
modifications: disulfide 4-10
SMILES: CC(=O)N[C@@H](Cc1c[nH]c2ccccc12)C(=O)N[C@H](C(=O)N[C@H](C(=O)N[C@H]1CSSC[C@@H](C(=O)N[C@@H](Cc2c[nH]c3ccccc23)C(=O)N2CCC[C@H]2C(N)=O)NC(=O)[C@H](CC(=O)O)NC(=O)[C@H](CCCCNC(=O)CN2CCN(CC(=O)O)CCN(CC(=O)O)CCN(CC(=O)O)CC2)NC(=O)[C@H](Cc2ccc3ccccc3c2)NC(=O)[C@H](CC(N)=O)NC(=O)[C@H](CC(N)=O)NC1=O)C1CCOCC1)[C@@H](C)O
B5: Cpd No. 249 (peptide)
peptide: Ac-WTICK(DOTA)N[2Nal]HDCWP-NH2
modifications: disulfide 4-10
SMILES: CC[C@H](C)[C@H](NC(=O)[C@@H](NC(=O)[C@H](Cc1c[nH]c2ccccc12)NC(C)=O)[C@@H](C)O)C(=O)N[C@H]1CSSC[C@@H](C(=O)N[C@@H](Cc2c[nH]c3ccccc23)C(=O)N2CCC[C@H]2C(N)=O)NC(=O)[C@H](CC(=O)O)NC(=O)[C@H](Cc2c[nH]cn2)NC(=O)[C@H](Cc2ccc3ccccc3c2)NC(=O)[C@H](CC(N)=O)NC(=O)[C@H](CCCCNC(=O)CN2CCN(CC(=O)O)CCN(CC(=O)O)CCN(CC(=O)O)CC2)NC1=O
notes: also called compound 249
B6: Cpd No. 322 (peptide)
peptide: Ac-WT[aIle]CNN[2Nal]K(DOTA)DCWP-NH2
modifications: disulfide 4-10
SMILES: CC[C@@H](C)[C@H](NC(=O)[C@@H](NC(=O)[C@H](Cc1c[nH]c2ccccc12)NC(C)=O)[C@@H](C)O)C(=O)N[C@H]1CSSC[C@@H](C(=O)N[C@@H](Cc2c[nH]c3ccccc23)C(=O)N2CCC[C@H]2C(N)=O)NC(=O)[C@H](CC(=O)O)NC(=O)[C@H](CCCCNC(=O)CN2CCN(CC(=O)O)CCN(CC(=O)O)CCN(CC(=O)O)CC2)NC(=O)[C@H](Cc2ccc3ccccc3c2)NC(=O)[C@H](CC(N)=O)NC(=O)[C@H](CC(N)=O)NC1=O
B7: Cpd No. 323 (peptide)
peptide: Ac-WT[Cha]CNN[2Nal]K(DOTA)DCWP-NH2
modifications: disulfide 4-10
SMILES: CC(=O)N[C@@H](Cc1c[nH]c2ccccc12)C(=O)N[C@H](C(=O)N[C@@H](CC1CCCCC1)C(=O)N[C@H]1CSSC[C@@H](C(=O)N[C@@H](Cc2c[nH]c3ccccc23)C(=O)N2CCC[C@H]2C(N)=O)NC(=O)[C@H](CC(=O)O)NC(=O)[C@H](CCCCNC(=O)CN2CCN(CC(=O)O)CCN(CC(=O)O)CCN(CC(=O)O)CC2)NC(=O)[C@H](Cc2ccc3ccccc3c2)NC(=O)[C@H](CC(N)=O)NC(=O)[C@H](CC(N)=O)NC1=O)[C@@H](C)O

Experiments:
[1] = target: Recombinant human DLL3 aa27-215 protein (human) (UniProt Q9NYJ7); assay: ELISA: anti-DOTA antibody coated on the plate captures the DOTA-containing peptide (titrated 100 nM to 1.69 pM); 2 ug/mL DLL3 aa27-215 (His-tagged) added; detected with anti-His-HRP, OD450; EC50 fitted in GraphPad
[2] = target: DLL3 on CT26.DLL3 cells (Homo sapiens (Human)) (UniProt Q9NYJ7); assay: [177Lu]Lu-labelled peptide on CT26.DLL3 cells, 1 h 37 C, gamma counter; B = 25<%<=50
[3] = target: T1, DLL3 on SHP-77 cells; assay: [177Lu]Lu-labelled peptide on SHP-77 cells, 1 h 37 C, gamma counter; B = 25<%<=50
[4] = target: T1, DLL3 on SHP-77 cells; assay: [177Lu]Lu-labelled peptide on SHP-77 cells, 1 h 37 C, gamma counter; C = %>50
[5] = target: T2, DLL3 on CT26.DLL3 cells; assay: [177Lu]Lu-labelled peptide on CT26.DLL3 cells, 1 h 37 C, gamma counter; A = %<=25
Protocol: (§1) Adherent cell studies: The cells were cultured in appropriate culture media (20 mL) in tissue culture treated T150 flasks at 37° C. and 5% C02. Adherent cells were detached (60-70% confluent) using 5 mL Versene at 37° C. for 3 minutes. After confirming the viability using countess and count of detached cells using Trypan blue, the cells were centrifuged at 4° C. for 5 minutes (1,000 rpm). The cell pellet obtained was washed once with PBS and resuspended in 1% PBSA to obtain the desired cell concentration (5-25 million cells/mL).
(§2) Total uptake: Cells were incubated with 300 μL (0.8 μCi) of the incubation buffer (containing radiolabeled peptide [¹⁷⁷Lu]Lu-test peptide) for 1 hour at 37° C. (Table 10). Post incubation, the cells were pelleted and washed 2 times using cold PBS+1% BSA. The supernatant and washes were combined and counted together as “unbound fraction” in a gamma counter. The cells were then resuspended in 300 μL of 1% PBS+1% BSA and counted in the gamma counter as “bound fraction”.

[6] = target: T1, DLL3 on SHP-77 cells; assay: [177Lu]Lu-labelled peptide on SHP-77 cells, 1 h 37 C, gamma counter; A = %<=25
Protocol: as §1, §2

| Binder | % Binding [4] [%] | % Binding [5] [%] | further results |
| --- | --- | --- | --- |
| Ac-WT[tBuAla]C[Ala(piperidin-4-yl)]N[2Nal]K(DOTA)DCW[αMeP]-NH2 (bridge 4-10; not fully specified (bridges)) [Cpd No. 437] |  |  | EC50 [1]: 2.86 nM |
| Ac-WT[NMeNle]C[Ala(piperidin-4-yl)]N[2Nal]K(DOTA)DCWP-NH2 (disulfide 4-10) [Cpd No. 300] |  |  | % Binding [2]: > 25% and < 50% |
| B1 |  |  | % Binding [2]: > 25% and < 50%; % Binding [3]: > 25% and < 50% |
| Ac-WT[Tle]C[Ala(piperidin-4-yl)]N[2Nal]K(DOTA)DCWP-NH2 (disulfide 4-10) [Cpd No. 301] |  |  | % Binding [2]: > 25% and < 50% |
| B2 |  |  | % Binding [2]: > 25% and < 50% |
| Ac-WT[NMetBuAla]C[Ala(piperidin-4-yl)]N[2Nal]K(DOTA)DCWP-NH2 (bridge 4-10; not fully specified (bridges)) [Cpd No. 153] | > 50 |  |  |
| Ac-WT[NMetBuAla]C[Ala(piperidin-4-yl)]N[2Nal]K(DOTA)DCWP[dK]-NH2 (bridge 4-10; not fully specified (residue 13)) [Cpd No. 445] | > 50 |  |  |
| Ac-WT[NMetBuAla]C[Ala(piperidin-4-yl)]N[2Nal]K(DOTA)DCWP-OH (linker 4-10 via CH2) [Cpd No. 442] | > 50 |  |  |
| Ac-WT[NMetBuAla]C[Ala(1-CH2CO2H-4-piperidyl)]N[2Nal]K(DOTA)DCWP-NH2 (linker 4-10 via CH2) [Cpd No. 447] | > 50 |  |  |
| Ac-WT[NMetBuAla]C[PipA(Peg)]N[2Nal]K(DOTA)DCWP-NH2 (linker 4-10 via CH2) [Cpd No. 448] | > 50 |  |  |
| Ac-WT[NMetBuAla]C[PipA(acetate-DOTA)]N[2Nal]K(DOTA)DCWP-NH2 (linker 4-10 via CH2) [Cpd No. 449] | > 50 |  |  |
| B3 |  | ≤ 25 |  |
| B4 |  | ≤ 25 | % Binding [6]: ≤ 25% |
| Ac-WT[Chg]CNN[2Nal]K(DOTA)DCWP-NH2 (disulfide 4-10) [Cpd No. 318] |  | ≤ 25 |  |
| Ac-WT[tBuAla]CNN[2Nal]K(DOTA)DCWP-NH2 (disulfide 4-10) [Cpd No. 316] |  | ≤ 25 |  |
| Ac-WT[NMeNle]CNN[2Nal]K(DOTA)DCWP-NH2 (disulfide 4-10) [Cpd No. 320] |  | ≤ 25 | % Binding [6]: ≤ 25% |
| B5 |  | ≤ 25 | % Binding [6]: ≤ 25% |
| Ac-WT[Ile(3-Me)]CNN[2Nal]K(DOTA)DCWP-NH2 (disulfide 4-10) [Cpd No. 321] |  | ≤ 25 |  |
| B6 |  | ≤ 25 | % Binding [6]: ≤ 25% |
| B7 |  | ≤ 25 | % Binding [6]: ≤ 25% |
